Data: patent publication US20220017622A1 (Pfizer, published 2022)

T1: human B7-H4 on cells (human, UniProt Q7Z7D3 25-282)
T1 sequence (looked up): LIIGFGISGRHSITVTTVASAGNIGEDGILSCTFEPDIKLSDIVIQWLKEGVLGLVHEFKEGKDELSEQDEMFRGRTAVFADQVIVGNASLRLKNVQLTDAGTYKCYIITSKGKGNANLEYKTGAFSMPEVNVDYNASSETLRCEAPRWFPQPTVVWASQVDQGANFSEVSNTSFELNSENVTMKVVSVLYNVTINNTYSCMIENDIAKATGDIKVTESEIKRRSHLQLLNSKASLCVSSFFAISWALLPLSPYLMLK


Biological target: T1, human B7-H4 on cells
Assay: cell-based or functional assay

Binder | T cell mediated tumor cell killing EC50, HCC1954-Luc
B7-H4xCD3 bispecific antibody 0976 (bispecific antibody, IgG2) heavy 1: EVQLVESGGGLVQPGGSLRLSCAVSGGSFSGYYWNWIRQPPGKGLEWIGEIDHQGSTKYNPSLKSRVTISVDTAKNSLYLQMNSLRAEDTAVYYCARELYNWNVDHWGQGTLVTVSSASTKGPSVFPLAPCSRSTSESTAALGCLVKDYFPEPVTVSWNSGALTSGVHTFPAVLQSSGLYSLSSVVTVPSSNFGTQTYTCNVDHKPSNTKVDKTVERKCEVECPECPAPPVAGPSVFLFPPKPKDTLMISRTPEVTCVVVAVSHEDPEVQFNWYVDGVEVHNAKTKPREEQFNSTFRVVSVLTVVHQDWLNGKEYKCKVSNKGLPSSIEKTISKTKGQPREPQVYTLPPSREEMTKNQVSLTCEVKGFYPSDIAVEWESNGQPENNYKTTPPMLDSDGSFFLYSKLTVDKSRWQQGNVFSCSVMHEALHNHYTQKSLSLSPG light 1: DIQMTQSPSSLSASVGDRVTITCRASQGIRNDLGWYQQKPGKAPKRLIYAASSLQSGVPSRFSGSGSGTDFTLTISSLQPEDFATYYCLQHNAYPRTFGGGTKVEIKRTVAAPSVFIFPPSDEQLKSGTASVVCLLNNFYPREAKVQWKVDNALQSGNSQESVTEQDSKDSTYSLSSTLTLSKADYEKHKVYACEVTHQGLSSPVTKSFNRGEC heavy 2: EVQLVESGGGLVQPGGSLRLSCAASGFTFSDYYMTWVRQAPGKGLEWVAFIRNQARGYTSDHNPSVKGRFTISRDNAKNSLYLQMNSLRAEDTAVYYCARDRPSYYVLDYWGQGTTVTVSSASTKGPSVFPLAPCSRSTSESTAALGCLVKDYFPEPVTVSWNSGALTSGVHTFPAVLQSSGLYSLSSVVTVPSSNFGTQTYTCNVDHKPSNTKVDKTVERKCRVRCPRCPAPPVAGPSVFLFPPKPKDTLMISRTPEVTCVVVAVSHEDPEVQFNWYVDGVEVHNAKTKPREEQFNSTFRVVSVLTVVHQDWLNGKEYKCKVSNKGLPSSIEKTISKTKGQPREPQVYTLPPSREEMTKNQVSLTCLVKGFYPSDIAVEWESNGQPENNYKTTPPMLDSDGSFFLYSRLTVDKSRWQQGNVFSCSVMHEALHNHYTQKSLSLSPGK light 2: DIQMTQSPSSLSASVGDRVTITCTSSQSLFNVRSQKNYLAWYQQKPGKAPKLLIYWASTRESGVPSRFSGSGSGTDFTLTISSLQPEDFATYYCKQSYDLFTFGGGTKVEIKRTVAAPSVFIFPPSDEQLKSGTASVVCLLNNFYPREAKVQWKVDNALQSGNSQESVTEQDSKDSTYSLSSTLTLSKADYEKHKVYACEVTHQGLSSPVTKSFNRGEC | 2.17 µM
B7-H4xCD3 bispecific antibody 0980 (bispecific antibody, IgG2) heavy 1: EVQLVESGGGLVQPGGSLRLSCAASGGSFSGYYWNWIRQPPGKGLEWIGEIDHQGSTKYNPSLKSRVTISVDTAKNSLYLQMNSLRAEDTAVYYCARGLYNWNVDHWGQGTLVTVSSASTKGPSVFPLAPCSRSTSESTAALGCLVKDYFPEPVTVSWNSGALTSGVHTFPAVLQSSGLYSLSSVVTVPSSNFGTQTYTCNVDHKPSNTKVDKTVERKCEVECPECPAPPVAGPSVFLFPPKPKDTLMISRTPEVTCVVVAVSHEDPEVQFNWYVDGVEVHNAKTKPREEQFNSTFRVVSVLTVVHQDWLNGKEYKCKVSNKGLPSSIEKTISKTKGQPREPQVYTLPPSREEMTKNQVSLTCEVKGFYPSDIAVEWESNGQPENNYKTTPPMLDSDGSFFLYSKLTVDKSRWQQGNVFSCSVMHEALHNHYTQKSLSLSPG light 1: DIQMTQSPSSLSASVGDRVTITCRASQGIRNDLGWYQQKPGKAPKRLIYAASSLQSGVPSRFSGSGSGTDFTLTISSLQPEDFATYYCLQHSSYPRTFGGGTKVEIKRTVAAPSVFIFPPSDEQLKSGTASVVCLLNNFYPREAKVQWKVDNALQSGNSQESVTEQDSKDSTYSLSSTLTLSKADYEKHKVYACEVTHQGLSSPVTKSFNRGEC heavy 2: EVQLVESGGGLVQPGGSLRLSCAASGFTFSDYYMTWVRQAPGKGLEWVAFIRNQARGYTSDHNPSVKGRFTISRDNAKNSLYLQMNSLRAEDTAVYYCARDRPSYYVLDYWGQGTTVTVSSASTKGPSVFPLAPCSRSTSESTAALGCLVKDYFPEPVTVSWNSGALTSGVHTFPAVLQSSGLYSLSSVVTVPSSNFGTQTYTCNVDHKPSNTKVDKTVERKCRVRCPRCPAPPVAGPSVFLFPPKPKDTLMISRTPEVTCVVVAVSHEDPEVQFNWYVDGVEVHNAKTKPREEQFNSTFRVVSVLTVVHQDWLNGKEYKCKVSNKGLPSSIEKTISKTKGQPREPQVYTLPPSREEMTKNQVSLTCLVKGFYPSDIAVEWESNGQPENNYKTTPPMLDSDGSFFLYSRLTVDKSRWQQGNVFSCSVMHEALHNHYTQKSLSLSPGK light 2: DIQMTQSPSSLSASVGDRVTITCTSSQSLFNVRSQKNYLAWYQQKPGKAPKLLIYWASTRESGVPSRFSGSGSGTDFTLTISSLQPEDFATYYCKQSYDLFTFGGGTKVEIKRTVAAPSVFIFPPSDEQLKSGTASVVCLLNNFYPREAKVQWKVDNALQSGNSQESVTEQDSKDSTYSLSSTLTLSKADYEKHKVYACEVTHQGLSSPVTKSFNRGEC | 0.39 µM
B7-H4xCD3 bispecific antibody 0978 (bispecific antibody, IgG2) heavy 1: EVQLVESGGGLVQPGGSLRLSCAASGGSFSGYYWNWIRQPPGKGLEWIGEIDHQGSTKYNPSLKSRVTISVDTAKNSLYLQMNSLRAEDTAVYYCARELYNWNVDHWGQGTLVTVSSASTKGPSVFPLAPCSRSTSESTAALGCLVKDYFPEPVTVSWNSGALTSGVHTFPAVLQSSGLYSLSSVVTVPSSNFGTQTYTCNVDHKPSNTKVDKTVERKCEVECPECPAPPVAGPSVFLFPPKPKDTLMISRTPEVTCVVVAVSHEDPEVQFNWYVDGVEVHNAKTKPREEQFNSTFRVVSVLTVVHQDWLNGKEYKCKVSNKGLPSSIEKTISKTKGQPREPQVYTLPPSREEMTKNQVSLTCEVKGFYPSDIAVEWESNGQPENNYKTTPPMLDSDGSFFLYSKLTVDKSRWQQGNVFSCSVMHEALHNHYTQKSLSLSPG light 1: DIQMTQSPSSLSASVGDRVTITCRASQGIRNDLGWYQQKPGKAPKRLIYAASSLQSGVPSRFSGSGSGTDFTLTISSLQPEDFATYYCLQHSSYPRTFGGGTKVEIKRTVAAPSVFIFPPSDEQLKSGTASVVCLLNNFYPREAKVQWKVDNALQSGNSQESVTEQDSKDSTYSLSSTLTLSKADYEKHKVYACEVTHQGLSSPVTKSFNRGEC heavy 2: EVQLVESGGGLVQPGGSLRLSCAASGFTFSDYYMTWVRQAPGKGLEWVAFIRNQARGYTSDHNPSVKGRFTISRDNAKNSLYLQMNSLRAEDTAVYYCARDRPSYYVLDYWGQGTTVTVSSASTKGPSVFPLAPCSRSTSESTAALGCLVKDYFPEPVTVSWNSGALTSGVHTFPAVLQSSGLYSLSSVVTVPSSNFGTQTYTCNVDHKPSNTKVDKTVERKCRVRCPRCPAPPVAGPSVFLFPPKPKDTLMISRTPEVTCVVVAVSHEDPEVQFNWYVDGVEVHNAKTKPREEQFNSTFRVVSVLTVVHQDWLNGKEYKCKVSNKGLPSSIEKTISKTKGQPREPQVYTLPPSREEMTKNQVSLTCLVKGFYPSDIAVEWESNGQPENNYKTTPPMLDSDGSFFLYSRLTVDKSRWQQGNVFSCSVMHEALHNHYTQKSLSLSPGK light 2: DIQMTQSPSSLSASVGDRVTITCTSSQSLFNVRSQKNYLAWYQQKPGKAPKLLIYWASTRESGVPSRFSGSGSGTDFTLTISSLQPEDFATYYCKQSYDLFTFGGGTKVEIKRTVAAPSVFIFPPSDEQLKSGTASVVCLLNNFYPREAKVQWKVDNALQSGNSQESVTEQDSKDSTYSLSSTLTLSKADYEKHKVYACEVTHQGLSSPVTKSFNRGEC | 0.32 µM
B7-H4xCD3 bispecific antibody 0090 (bispecific antibody, human IgG1, kappa) heavy 1: QVQLQQWGAGLLKPSETLSLTCAVYGGSFSGYYWNWIRQPPGKGLEWIGEINHSGSTKYNPSLKSRVTISGDTSKNQFSLKLNSVTAADTAVYYCVRGLYNWNVDSWGQGTLVTVSSASTKGPSVFPLAPSSKSTSGGTAALGCLVKDYFPEPVTVSWNSGALTSGVHTFPAVLQSSGLYSLSSVVTVPSSSLGTQTYICNVNHKPSNTKVDKKVEPKSCDKTHTCPPCPAPEAAGAPSVFLFPPKPKDTLMISRTPEVTCVVVDVSHEDPEVKFNWYVDGVEVHNAKTKPREEQYNSTYRVVSVLTVLHQDWLNGKEYKCKVSNKALPAPIEKTISKAKGQPREPQVYTLPPSREEMTKNQVSLTCEVKGFYPSDIAVEWESNGQPENNYKTTPPVLDSDGSFFLYSKLTVDKSRWQQGNVFSCSVMHEALHNHYTQKSLSLSPG light 1: DIQMTQSPSSLSASVGDRVTITCRASQGIRNDLGWYQQKPGKAPKRLIYVASSLQSGVPSRFSGSGSGTEFTLTISSLQPEDFATYYCLQHNSYPYTFGQGTKLEIKRTVAAPSVFIFPPSDEQLKSGTASVVCLLNNFYPREAKVQWKVDNALQSGNSQESVTEQDSKDSTYSLSSTLTLSKADYEKHKVYACEVTHQGLSSPVTKSFNRGEC heavy 2: EVQLVESGGGLVQPGGSLRLSCAASGFTFSDYYMTWVRQAPGKGLEWVAFIRNQARGYTSDHNPSVKGRFTISRDNAKNSLYLQMNSLRAEDTAVYYCARDRPSYYVLDYWGQGTTVTVSSASTKGPSVFPLAPSSKSTSGGTAALGCLVKDYFPEPVTVSWNSGALTSGVHTFPAVLQSSGLYSLSSVVTVPSSSLGTQTYICNVNHKPSNTKVDKKVEPKSCDKTHTCPPCPAPEAAGAPSVFLFPPKPKDTLMISRTPEVTCVVVDVSHEDPEVKFNWYVDGVEVHNAKTKPREEQYNSTYRVVSVLTVLHQDWLNGKEYKCKVSNKALPAPIEKTISKAKGQPREPQVYTLPPSREEMTKNQVSLTCLVKGFYPSDIAVEWESNGQPENNYKTTPPVLDSDGSFFLYSRLTVDKSRWQQGNVFSCSVMHEALHNHYTQKSLSLSPG light 2: DIQMTQSPSSLSASVGDRVTITCTSSQSLFNVRSQKNYLAWYQQKPGKAPKLLIYWASTRESGVPSRFSGSGSGTDFTLTISSLQPEDFATYYCKQSYDLFTFGGGTKVEIKRTVAAPSVFIFPPSDEQLKSGTASVVCLLNNFYPREAKVQWKVDNALQSGNSQESVTEQDSKDSTYSLSSTLTLSKADYEKHKVYACEVTHQGLSSPVTKSFNRGEC | 0.068 µM
